Values of other authors as cited in PMC3081175.

Biological target: c-Met (Homo sapiens) (UniProt P08581)
Chain of UniProt P08581 (P08581 25-932): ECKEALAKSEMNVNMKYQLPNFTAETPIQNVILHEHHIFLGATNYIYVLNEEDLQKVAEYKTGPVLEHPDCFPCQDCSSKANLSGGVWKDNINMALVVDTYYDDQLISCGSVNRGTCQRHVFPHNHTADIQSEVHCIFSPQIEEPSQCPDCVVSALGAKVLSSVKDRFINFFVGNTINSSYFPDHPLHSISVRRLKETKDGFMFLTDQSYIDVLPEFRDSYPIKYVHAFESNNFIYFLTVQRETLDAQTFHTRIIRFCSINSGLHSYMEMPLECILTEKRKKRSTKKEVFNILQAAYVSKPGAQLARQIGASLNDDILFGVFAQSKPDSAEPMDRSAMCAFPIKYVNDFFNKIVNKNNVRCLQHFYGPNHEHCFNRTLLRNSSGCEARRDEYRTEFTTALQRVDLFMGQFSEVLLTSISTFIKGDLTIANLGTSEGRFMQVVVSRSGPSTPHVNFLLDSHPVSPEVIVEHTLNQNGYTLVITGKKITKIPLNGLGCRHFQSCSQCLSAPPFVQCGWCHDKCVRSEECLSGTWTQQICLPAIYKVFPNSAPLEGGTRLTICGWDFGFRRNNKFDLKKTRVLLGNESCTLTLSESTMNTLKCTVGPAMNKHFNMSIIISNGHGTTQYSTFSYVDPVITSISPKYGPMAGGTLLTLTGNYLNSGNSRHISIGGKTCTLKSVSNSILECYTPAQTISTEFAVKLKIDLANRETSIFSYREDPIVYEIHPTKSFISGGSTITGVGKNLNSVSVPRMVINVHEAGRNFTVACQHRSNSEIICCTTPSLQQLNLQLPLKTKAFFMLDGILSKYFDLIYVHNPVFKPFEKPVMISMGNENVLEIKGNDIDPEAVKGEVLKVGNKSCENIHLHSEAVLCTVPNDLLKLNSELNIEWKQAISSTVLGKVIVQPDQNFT

HGF (from UniProt P14210)
Kd: 0.03 nM
